Results from patent US20180021429A1, “ANTICANCER AGENTS OR ANTIMETASTATIC AGENTS USING FSTL1 AND COMBINATION DRUG THEREOF” (PHARMA FOODS INTERNATIONAL CO., LTD., priority 2015, published 2018).
Changes are numbered by the printed parent chain. “Also recorded” adds a separate entry of the source.

T1: mouse FSTL1 (Mus musculus, UniProt Q62356)
T1 construct: AAA linker + 10xHis (C); made in house; host or cells: Expi293 (transient expression; purified from culture supernatant on HisPur Cobalt Resin)
T1 sequence (Q62356 with tags, fused parts or gaps): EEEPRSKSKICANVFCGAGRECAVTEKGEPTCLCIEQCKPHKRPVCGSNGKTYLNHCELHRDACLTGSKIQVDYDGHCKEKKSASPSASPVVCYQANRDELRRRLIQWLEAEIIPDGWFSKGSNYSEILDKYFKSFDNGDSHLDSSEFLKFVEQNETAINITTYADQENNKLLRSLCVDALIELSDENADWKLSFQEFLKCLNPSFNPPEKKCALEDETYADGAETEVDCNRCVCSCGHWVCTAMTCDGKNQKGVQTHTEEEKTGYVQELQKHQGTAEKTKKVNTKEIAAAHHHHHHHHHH

T2: FSTL1 (Homo sapiens, UniProt Q12841)
T2 sequence (Q12841 21-308): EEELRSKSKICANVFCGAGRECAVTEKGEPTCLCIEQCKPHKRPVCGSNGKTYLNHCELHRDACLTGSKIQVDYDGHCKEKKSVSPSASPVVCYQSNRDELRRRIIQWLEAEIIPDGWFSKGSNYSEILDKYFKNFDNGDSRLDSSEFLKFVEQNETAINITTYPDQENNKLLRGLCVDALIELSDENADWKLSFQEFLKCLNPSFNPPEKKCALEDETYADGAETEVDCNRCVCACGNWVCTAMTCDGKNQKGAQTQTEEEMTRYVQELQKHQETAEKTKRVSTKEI

B1: #6-55: chicken-mouse chimeric anti-FSTL1 antibody clone; variable regions SEQ ID NO: 783 (light), 785 (heavy) (antibody, V domains shown)
VH: AVTLDESGGGLQTPGGALSLVCKGSGFTFTSVTMQWVRQAPGKGLEWVASVCSGSSTYYAPAVKGRATISRDNGQSTVRLQLSNLRPEDTGTYYCAKIAGRARWSCTSAAYNIDAWGHGTEVIVSS
VL: ASTQPSSVSAIPGETVKITCSGGGNNYGWYQQRSPGSAPVTVIYYNDNRPSNIPSRFSGSTSGSTSTLTITGVQADDEAIYYCGSWDSNTDSGIFGAGTTLTVL
modifications: mouse constant regions
B2: #5-8: chicken-mouse chimeric anti-FSTL1 antibody clone; variable regions SEQ ID NO: 771 (light), 773 (heavy) (antibody, V domains shown)
VH: AVTLDESGGGLQTPGGGLSLVCKGSGFTFSSFNMFWVRQAPGKGLEWVAGIGKDGVPKYGTAVDGRATISKDNGQSTMRLQLNNLRAEDTGTYFCAKAAGGCSYDWCGIYTGDIDTWGHGTEVIVSS
VL: ASTQPSSVSANPGEAVKITCSGGSGSYYGWYQQKSPGSAPVTVIYNNNQRPSDIPSRFSGSKSGSTATLTITGVQAEDEAVYFCGGYDSSTGHGGIFGAGTTLTVL
modifications: mouse constant regions
B3: #8-1: chicken-mouse chimeric anti-FSTL1 antibody clone; variable regions SEQ ID NO: 791 (light), 793 (heavy) (antibody, V domains shown)
VH: B2 VH with G17A, T61A, T111A
VL: B2 VL with T91S
modifications: mouse constant regions
B4: #8-4: chicken-mouse chimeric anti-FSTL1 antibody clone; variable regions SEQ ID NO: 795 (light), 797 (heavy) (antibody, V domains shown)
VH: AVTLDESGGGLQTPGGGLSLVCKGSGFTLSSFNMFWVRQAPGKGLEWVAGVGKDGGTAYGAAVDGRATISRDSGQSTVRLQLNNLRAEDTGTYFCAKAAGGCSYSWCGAYVGDLDAWGHGTEVIVSS
VL: ASSQPSSVSANPGETVKITCSGGSGYYYGWYQQKSPGSAPVTVIYNNDNKPSDIPSRFSGSKSGSTGTLTITGVQVEDEAVYFCGGYDNSGTGIFGAGTTLTVL
modifications: mouse constant regions
B5: #13: chicken-mouse chimeric anti-FSTL1 antibody clone; variable regions SEQ ID NO: 815 (light), 817 (heavy) (antibody, V domains shown)
VH: AVTLDESGGGLQTPGGGLSLVCKASGFTFSSVTMQWVRQAPGKGLEWVASICSGSSTYYGPAVKGRATISRDNGQNTVRLQLNNLRAEDTATYYCAKIVGRGRWSCTSAAYNIDAWGHGTEVIVSS
VL: ASTQPSSVSANPGETVKITCSGGGNNYGWYQQKSPGSAPVTVIYNNNNRPSNIPSRFSGSKSGSTNTLTITGVQAEDEAVYYCGSYDSSSDSGIFGAGTTLTVL
modifications: mouse constant regions
B6: #33: chicken-mouse chimeric anti-FSTL1 antibody clone; variable regions SEQ ID NO: 823 (light), 825 (heavy) (antibody, V domains shown)
VH: AVTLDESGGGLQTPGGGLSLVCKASGFTFSSFNMNWVRQAPGKGLEYVAEISGTGSSTYYGSAVKGRATISRDNGQSTVRLQLNNLRAEDTATYFCARGDGAYSIDAWGHGTEVIVSS
VL: ASTQPSSVSANPGETVEITCSGDSSYYGWFQQKSPGSAPVTVIYDNTNRPSDIPSRFSGSKSGSTATLTITGVRAEDEAVYYCGGYDSSTYDGIFGAGTTLTVL
modifications: mouse constant regions

How the values were obtained:
mouse FSTL1 = target: T1, mouse FSTL1; assay: ELISA binding activity of purified antibody against mouse FSTL1
Description: The reactivity of the obtained antibody clones described above with FSTL1 was evaluated by ELISA under the following conditions.
(Table 2 ELISA Conditions for Binding Activity Evaluation of Purified Antibody)
Antibodies used: anti-dinitrophenyl (DNP) antibody (negative control), #5-2, #5-3, #5-8, #5-10, #5-43, #6-55, and #7-34
FIGS. 96 and 97 show results of evaluating binding activity under the condition of Table 3 as to clones differing in screening and antibody purification timings.
(Table 3 ELISA Conditions for Binding Activity Evaluation of Purified Antibody)

FSTL1 = target: T2, FSTL1; assay: Inhibition of induction of MSCs, cancer-associated MSCs and M-MDSCs by FSTL1 in mouse bone marrow cells (Examples 13 to 15); assay type: cell-based; set-up: purchased R&D Systems, Inc. 1694-FN-050
Description: The antibody clone (#6-55, #7, […], #13, or #22) was evaluated for its activity by the same testing method as in Example 13. #6-55 was set as a positive control for activity. […] Mouse bone marrow cells were supplemented with FSTL1 and the predetermined concentration of each antibody and cultured for 8 days. 5×10^4 cells/well were separated from each culture system and evaluated for the ability to differentiate into adipocytes using an adipocyte differentiation reagent included in “Mesenchymal Stem Cell Functional Identification Kit (R&D Systems, Inc., Cat. No. SCO10)”. For the evaluation method, the cells were supplemented with the adipocyte differentiation reagent and cultured for 8 days. Then, adipocytes per culture system were counted under a microscope for evaluation. In the graph, none is depicted in the leftmost bar, and the control antibody is depicted in the second bar from the left followed by the anti-FSLT1 antibody clones. Adipocytes were not confirmed for any of the anti-FSLT1 antibodies. It is understood that the differentiation induction of MSCs serving as the original source is inhibited.
Mouse bone marrow cells (bone marrow cells prepared in the same way as in Example 4) were supplemented with 20 ng/mL (final concentration) of FSTL1 and 20.0, 10.0, 5.0, or 2.5 μg/ml (final concentration) of the rat anti-FSTL1 antibody or #6-55. Also, mouse bone marrow cells were supplemented with 20.0 μg/ml (final concentration) each of their respective control antibodies, a rat IgG2b isotype control (R&D Systems, Inc., Cat. No. MAB0061, clone 141945) and an anti-DNP antibody. The cells were cultured for 8 days, and the inhibitory activity of each antibody against the induction of MSCs, cancer-associated MSCs, and M-MDSCs by FSTL1 was evaluated in the same way as in Example 13 (FIG. 40A). […] The inhibition of regulatory T cells shown in Patent Literature 1 (WO2009/028411) is presumably a consequence mediated by the inhibition of MSC induction. […]

[1] = ELISA Table 3 conditions, FIG. 97B
[2] = Example 14, #6-55 as positive control

Molecule | binding activity against mouse FSTL1 (mouse FSTL1; [1]) | inhibitory activity against the induction of MSCs, cancer-associated MSCs, and M-MDSCs by FSTL1 (FSTL1; [2]) | further results
B1 | – | – | binding activity against mouse FSTL1 (mouse FSTL1; ELISA, FIG. 95B): specific and equivalently strong binding activity; inhibitory activity against the induction of MSCs, cancer-associated MSCs, and M-MDSCs by FSTL1 (FSTL1; Example 15, FSTL1 20 ng/mL, antibody 20.0, 10.0, 5.0, or 2.5 μg/ml, dose dependence not confirmed): at the same level; also recorded: slightly superior
B2 | no binding activity | – | –
B3 | very slightly exhibited binding activity | – | –
B4 | no binding activity | – | –
B5 | – | inhibitory activity equivalent to or higher than that of the positive control | –
B6 | – | inhibitory activity equivalent to or higher than that of the positive control | –
